B1: BCMA-3 CAR (other)
chain: QVQLVQSGAEVKKPGASVKVSCKASGYTFSNYGITWVRQAPGQGLEWMGWISAYNGNTNYAQKFQGRVTMTRNTSISTAYMELSSLRSEDTAVYYCARGPYYYYMDVWGKGTMVTVSSASGGGGSGGRASGGGGSEIVMTQSPLSLPVTPGEPASISCRSSQSLLYSNGYNYVDWYLQKPGQSPQLLIYLGSNRASGVPDRFSGSGSGTDFKLQISRVEAEDVGIYYCMQGRQFPYSFGQGTKVEIKTTTPAPRPPTPAPTIASQPLSLRPEACRPAAGGAVHTRGLDFACDIYIWAPLAGTCGVLLLSLVITLYCKRGRKKLLYIFKQPFMRPVQTTQEEDGCSCRFPEEEEGGCELRVKFSRSADAPAYKQGQNQLYNELNLGRREEYDVLDKRRGRDPEMGGKPRRKNPQEGLYNELQKDKMAEAYSEIGMKGERRRGKGHDGLYQGLSTATKDTYDALHMQALPPR
notes: Chimeric antigen receptor; 0.0 % CAR+ on JNL cells by BCMA-Fc detection; also called 139102 Full CAR; KR98-03KA
B2: BCMA-1 CAR (other)
chain: QVQLVQSGAEVRKTGASVKVSCKASGYIFDNFGINWVRQAPGQGLEWMGWINPKNNNTNYAQKFQGRVTITADESTNTAYMEVSSLRSEDTAVYYCARGPYYYQSYMDVWGQGTMVTVSSASGGGGSGGRASGGGGSDIVMTQTPLSLPVTPGEPASISCRSSQSLLHSNGYNYLNWYLQKPGQSPQLLIYLGSKRASGVPDRFSGSGSGTDFTLHITRVGAEDVGVYYCMQALQTPYTFGQGTKLEIKTTTPAPRPPTPAPTIASQPLSLRPEACRPAAGGAVHTRGLDFACDIYIWAPLAGTCGVLLLSLVITLYCKRGRKKLLYIFKQPFMRPVQTTQEEDGCSCRFPEEEEGGCELRVKFSRSADAPAYKQGQNQLYNELNLGRREEYDVLDKRRGRDPEMGGKPRRKNPQEGLYNELQKDKMAEAYSEIGMKGERRRGKGHDGLYQGLSTATKDTYDALHMQALPPR
notes: also called 139100 Full CAR; ER95-03VA
B3: BCMA-2 CAR (other)
chain: QVQLQESGGGLVQPGGSLRLSCAASGFTFSSDAMTWVRQAPGKGLEWVSVISGSGGTTYYADSVKGRFTISRDNSKNTLYLQMNSLRAEDTAVYYCAKLDSSGYYYARGPRYWGQGTLVTVSSASGGGGSGGRASGGGGSDIQLTQSPSSLSASVGDRVTITCRASQSISSYLNWYQQKPGKAPKLLIYGASTLASGVPARFSGSGSGTHFTLTINSLQSEDSATYYCQQSYKRASFGQGTKVEIKTTTPAPRPPTPAPTIASQPLSLRPEACRPAAGGAVHTRGLDFACDIYIWAPLAGTCGVLLLSLVITLYCKRGRKKLLYIFKQPFMRPVQTTQEEDGCSCRFPEEEEGGCELRVKFSRSADAPAYKQGQNQLYNELNLGRREEYDVLDKRRGRDPEMGGKPRRKNPQEGLYNELQKDKMAEAYSEIGMKGERRRGKGHDGLYQGLSTATKDTYDALHMQALPPR
notes: also called 139101 Full CAR; UR96-08PA
B4: BCMA-4 CAR (other)
chain: QVQLVESGGGLVQPGRSLRLSCAASGFTFSNYAMSWVRQAPGKGLGWVSGISRSGENTYYADSVKGRFTISRDNSKNTLYLQMNSLRDEDTAVYYCARSPAHYYGGMDVWGQGTTVTVSSASGGGGSGGRASGGGGSDIVLTQSPGTLSLSPGERATLSCRASQSISSSFLAWYQQKPGQAPRLLIYGASRRATGIPDRFSGSGSGTDFTLTISRLEPEDSAVYYCQQYHSSPSWTFGQGTKLEIKTTTPAPRPPTPAPTIASQPLSLRPEACRPAAGGAVHTRGLDFACDIYIWAPLAGTCGVLLLSLVITLYCKRGRKKLLYIFKQPFMRPVQTTQEEDGCSCRFPEEEEGGCELRVKFSRSADAPAYKQGQNQLYNELNLGRREEYDVLDKRRGRDPEMGGKPRRKNPQEGLYNELQKDKMAEAYSEIGMKGERRRGKGHDGLYQGLSTATKDTYDALHMQALPPR
notes: also called 139103 Full CAR; JF32-78IB
B5: BCMA-7 CAR (other)
chain: EVQLVETGGGLVQPGGSLRLSCAVSGFALSNHGMSWVRRAPGKGLEWVSGIVYSGSTYYAASVKGRFTISRDNSRNTLYLQMNSLRPEDTAIYYCSAHGGESDVWGQGTTVTVSSASGGGGSGGRASGGGGSEIVMTQSPATLSVSPGERATLSCRASQSVSSKLAWYQQKPGQAPRLLMYGASIRATGIPDRFSGSGSGTEFTLTISSLEPEDFAVYYCQQYGSSSWTFGQGTKVEIKTTTPAPRPPTPAPTIASQPLSLRPEACRPAAGGAVHTRGLDFACDIYIWAPLAGTCGVLLLSLVITLYCKRGRKKLLYIFKQPFMRPVQTTQEEDGCSCRFPEEEEGGCELRVKFSRSADAPAYKQGQNQLYNELNLGRREEYDVLDKRRGRDPEMGGKPRRKNPQEGLYNELQKDKMAEAYSEIGMKGERRRGKGHDGLYQGLSTATKDTYDALHMQALPPR
notes: also called 139106 Full CAR; QR91-12ZA
B6: BCMA-9 CAR (other)
chain: QVQLVESGGGLVKPGGSLRLSCAASGFTFSDYYMSWIRQAPGKGLEWVSYISSSGSTIYYADSVKGRFTISRDNAKNSLYLQMNSLRAEDTAVYYCARESGDGMDVWGQGTTVTVSSASGGGGSGGRASGGGGSDIQMTQSPSSLSASVGDRVTITCRASQSISSYLNWYQQKPGKAPKLLIYAASSLQSGVPSRFSGSGSGTDFTLTISSLQPEDFATYYCQQSYTLAFGQGTKVDIKTTTPAPRPPTPAPTIASQPLSLRPEACRPAAGGAVHTRGLDFACDIYIWAPLAGTCGVLLLSLVITLYCKRGRKKLLYIFKQPFMRPVQTTQEEDGCSCRFPEEEEGGCELRVKFSRSADAPAYKQGQNQLYNELNLGRREEYDVLDKRRGRDPEMGGKPRRKNPQEGLYNELQKDKMAEAYSEIGMKGERRRGKGHDGLYQGLSTATKDTYDALHMQALPPR
notes: also called 139108 Full CAR; OG62-93QB
B7: BCMA-13 CAR (other)
chain: QVQLVESGGGLVQPGGSLRLSCAVSGFALSNHGMSWVRRAPGKGLEWVSGIVYSGSTYYAASVKGRFTISRDNSRNTLYLQMNSLRPEDTAIYYCSAHGGESDVWGQGTTVTVSSASGGGGSGGRASGGGGSDIRLTQSPSPLSASVGDRVTITCQASEDINKFLNWYHQTPGKAPKLLIYDASTLQTGVPSRFSGSGSGTDFTLTINSLQPEDIGTYYCQQYESLPLTFGGGTKVEIKTTTPAPRPPTPAPTIASQPLSLRPEACRPAAGGAVHTRGLDFACDIYIWAPLAGTCGVLLLSLVITLYCKRGRKKLLYIFKQPFMRPVQTTQEEDGCSCRFPEEEEGGCELRVKFSRSADAPAYKQGQNQLYNELNLGRREEYDVLDKRRGRDPEMGGKPRRKNPQEGLYNELQKDKMAEAYSEIGMKGERRRGKGHDGLYQGLSTATKDTYDALHMQALPPR
notes: also called 139112 Full CAR; KG66-98AB
B8: BCMA-11 CAR (other)
chain: QVQLVQSGGGLVKPGGSLRLSCAASGFTFSDYYMSWIRQAPGKGLEWVSYISSSGNTIYYADSVKGRFTISRDNAKNSLYLQMNSLRAEDTAVYYCARSTMVREDYWGQGTLVTVSSASGGGGSGGRASGGGGSDIVLTQSPLSLPVTLGQPASISCKSSESLVHNSGKTYLNWFHQRPGQSPRRLIYEVSNRDSGVPDRFTGSGSGTDFTLKISRVEAEDVGVYYCMQGTHWPGTFGQGTKLEIKTTTPAPRPPTPAPTIASQPLSLRPEACRPAAGGAVHTRGLDFACDIYIWAPLAGTCGVLLLSLVITLYCKRGRKKLLYIFKQPFMRPVQTTQEEDGCSCRFPEEEEGGCELRVKFSRSADAPAYKQGQNQLYNELNLGRREEYDVLDKRRGRDPEMGGKPRRKNPQEGLYNELQKDKMAEAYSEIGMKGERRRGKGHDGLYQGLSTATKDTYDALHMQALPPR
notes: also called 139110 Full CAR; UG65-93FB
B9: BCMA-14 CAR (other)
chain: EVQLVETGGGLVQPGGSLRLSCAVSGFALSNHGMSWVRRAPGKGLEWVSGIVYSGSTYYAASVKGRFTISRDNSRNTLYLQMNSLRPEDTAIYYCSAHGGESDVWGQGTTVTVSSASGGGGSGGRASGGGGSETTLTQSPATLSVSPGERATLSCRASQSVGSNLAWYQQKPGQGPRLLIYGASTRATGIPARFSGSGSGTEFTLTISSLQPEDFAVYYCQQYNDWLPVTFGQGTKVEIKTTTPAPRPPTPAPTIASQPLSLRPEACRPAAGGAVHTRGLDFACDIYIWAPLAGTCGVLLLSLVITLYCKRGRKKLLYIFKQPFMRPVQTTQEEDGCSCRFPEEEEGGCELRVKFSRSADAPAYKQGQNQLYNELNLGRREEYDVLDKRRGRDPEMGGKPRRKNPQEGLYNELQKDKMAEAYSEIGMKGERRRGKGHDGLYQGLSTATKDTYDALHMQALPPR
notes: also called 139113 Full CAR; HJ64-62PB
B10: BCMA-5 CAR (other)
chain: EVQLLETGGGLVQPGGSLRLSCAVSGFALSNHGMSWVRRAPGKGLEWVSGIVYSGSTYYAASVKGRFTISRDNSRNTLYLQMNSLRPEDTAIYYCSAHGGESDVWGQGTTVTVSSASGGGGSGGRASGGGGSEIVLTQSPATLSVSPGESATLSCRASQSVSSNLAWYQQKPGQAPRLLIYGASTRASGIPDRFSGSGSGTDFTLTISSLQAEDVAVYYCQQYGSSLTFGGGTKVEIKTTTPAPRPPTPAPTIASQPLSLRPEACRPAAGGAVHTRGLDFACDIYIWAPLAGTCGVLLLSLVITLYCKRGRKKLLYIFKQPFMRPVQTTQEEDGCSCRFPEEEEGGCELRVKFSRSADAPAYKQGQNQLYNELNLGRREEYDVLDKRRGRDPEMGGKPRRKNPQEGLYNELQKDKMAEAYSEIGMKGERRRGKGHDGLYQGLSTATKDTYDALHMQALPPR
notes: also called 139104 Full CAR; AR99-08FA
B11: BCMA-12 CAR (other)
chain: EVQLLESGGGLVQPGGSLRLSCAVSGFALSNHGMSWVRRAPGKGLEWVSGIVYSGSTYYAASVKGRFTISRDNSRNTLYLQMNSLRPEDTAIYYCSAHGGESDVWGQGTTVTVSSASGGGGSGGRASGGGGSDIVMTQTPLSLSVTPGQPASISCKSSQSLLRNDGKTPLYWYLQKAGQPPQLLIYEVSNRFSGVPDRFSGSGSGTDFTLKISRVEAEDVGAYYCMQNIQFPSFGGGTKLEIKTTTPAPRPPTPAPTIASQPLSLRPEACRPAAGGAVHTRGLDFACDIYIWAPLAGTCGVLLLSLVITLYCKRGRKKLLYIFKQPFMRPVQTTQEEDGCSCRFPEEEEGGCELRVKFSRSADAPAYKQGQNQLYNELNLGRREEYDVLDKRRGRDPEMGGKPRRKNPQEGLYNELQKDKMAEAYSEIGMKGERRRGKGHDGLYQGLSTATKDTYDALHMQALPPR
notes: also called 139111 Full CAR; HU13-58ZB

Biological target: T1, BCMA-Fc antigen (UniProt Q02223 5-51, limits assumed)
T1 construct: Bought reagent; also called BCMA fc fusion protein; recombinant BCMA-Fc; not shown: Fc region
T1 chain (looked up): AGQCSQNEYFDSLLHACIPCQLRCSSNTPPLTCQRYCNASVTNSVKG
Experiment: flow cytometry of CAR-transduced JNL cells stained with BCMA-Fc antigen
Protocol: Jurkat-NFAT-luciferase (JNL) cells transduced with BCMA CAR constructs were evaluated for activation in response to BCMA-expressing target cell lines. Small-scale viral supernatant samples were generated in HEK293T cells for transduction of JNL cells. On Day 3 following transduction, BCMA CAR-transduced JNL cells were incubated with target cells at an effector-to-target (E:T) ratio of 6:1. Target cell lines were: K562-BCMA (engineered to stably express BCMA), K562 (parental line), and BCMA positive multiple myeloma cell lines, NCI-H929 and RPMI 8226. JNL activation was measured using Bright-Glo substrate (Promega) on Day 4. CAR expression on transduced JNL was assessed on Day 7 with BCMA-Fc antigen and Biotin-Protein L reagent (Table 7).

Binder | % CAR+ (BCMA-Fc detection) [%]
B1 | 0
B2 | 72.1
B3 | 32
B4 | 49.5
B5 | 30.4
B6 | 54.7
B7 | 32.7
B8 | 42.7
B9 | 31.8
B10 | 28.9
B11 | 23.4

Reference: patent publication US20160046724A1 (Novartis, published 2016)
